Experimental data taken from patent publication US20110189093A1, “PROSTATE SPECIFIC MEMBRANE ANTIGEN ANTIBODIES AND ANTIGEN BINDING FRAGMENTS” (PROSCAN RX PHARMA, priority 2008, published 2011).

How the values were obtained:
[1] = tested on: 22 different tumor types; experiment: Immunohistochemistry on tissue microarrays of tumor types
Procedure: (§1) Tissue and tumor specificity of mAbs: to compare the tissue and tumor specificity of monoclonal antibodies of the present invention, tissue microarrays of 30 different normal tissues (Biochain) and 22 different tumor types (Dako) including prostate cancer was used in order to characterize their recognition specificity. The immunohistochemistry was performed on antigen retrieved, formalin fixed, paraffin embedded material. Anti-PSMA mAbs J591 (ATCC HB-12126) and 7E11 (ATCC HB-10494) were used as references. Formalin fixed paraffin embedded […] sections were subjected to antigen retrieval in basic antigen retrieval solution (BD Pharmingen pH 9.5) in a microwavable pressure cooker for 10 min, cooled and equilibrated to 0.01M phosphate buffered saline (PBS) pH 7.4. Staining was carried out at room temperature in a humidified chamber. Endogenous peroxidases were inactivated with a 1% solution of H2O2 for 20 min, blocked with 5% normal goat serum (NGS) for 30 min and incubated with primary monoclonal antibodies (mAbs) diluted in PBS; 2% NGS overnight. Antibody binding to tissue sections was detected by the sequential addition of the following reagents followed by washing in PBS: goat anti-mouse IgG (H+L) (ICN) secondary antibody diluted 1:100 in PBS; 2% NGS for 1 hr, a complex of a bi-specific mAb mouse anti-peroxidase and horse radish peroxidase for 1 hr, and 3,3-diaminobenzidene tetrahydrochloride (DAB) at 0.6 mg/ml in PBS; 2% NGS; 0.01% H2O2 as chromogen. The primary antibodies were purified mAbs used at concentrations optimized in dilution experiments. […] Mouse IgG mAb was used at a concentration of 0.2 μg/ml and served as a negative control for the primary antibodies. Tissue samples included organ confined and metastatic prostate cancer, HGPIN and normal prostate tissues drawn from radical prostatectomies, transurethral resections and autopsy material.

[2] = tested on: 30 different normal tissues; experiment: Immunohistochemistry on tissue microarrays of normal tissues
Procedure: as §1

B1: PSf42.1: anti-PSMA monoclonal antibody; light chain variable SEQ ID NO:45, heavy chain variable SEQ ID NO:46 (antibody, V domains shown)
VH: EVQLEESGAEFVRPGAAVKLSCTVSGLNIKDSYLHWVKQRPEQGLEWIGGIDPANGDVEYDPKFQGKAAITADTSSNTAYLRLSSLTSEDTAVYYCAPFPYWGAGTTVTVS
VL: DILMTQSPLTLSVIIGQPASFSCKSSHSLLHRDGRTYLNWLLQRPGQSPQRLIYLVSKLDSGVPDRFTGSGSGTDFTLKISRVEAEDLGVYYCWQGTHFPRTFGGGTKLEIKRA
No. of positive cases/total no. of cases studied ([1]; Astrocytoma): 0/2
No. of positive cases/total no. of cases studied ([1]; Breast carcinoma): 0/2
No. of positive cases/total no. of cases studied ([1]; Carcinoid): 0/3
No. of positive cases/total no. of cases studied ([1]; Colonic adenocarcinoma): 0/2
No. of positive cases/total no. of cases studied ([1]; Epithelioid sarcoma): 0/1
No. of positive cases/total no. of cases studied ([1]; Ewing's sarcoma): 0/1
No. of positive cases/total no. of cases studied ([1]; Gastric carcinoma): 0/2
No. of positive cases/total no. of cases studied ([1]; Hepatocellular carcinoma): 0/2
No. of positive cases/total no. of cases studied ([1]; Hodgkin's lymphoma): 1/13
No. of positive cases/total no. of cases studied ([1]; Leiomyoma): 0/2
No. of positive cases/total no. of cases studied ([1]; Lung adeno carcinoma): 0/2
No. of positive cases/total no. of cases studied ([1]; Lymphoma): 0/3
No. of positive cases/total no. of cases studied ([1]; Malignant fibrous histiocytoma): 0/1
No. of positive cases/total no. of cases studied ([1]; Melanoma): 0/3
No. of positive cases/total no. of cases studied ([1]; Mesothelioma): 0/2
No. of positive cases/total no. of cases studied ([1]; Ovarian carcinoma): 0/2
No. of positive cases/total no. of cases studied ([1]; Pancreatic carcinoma): 0/2
No. of positive cases/total no. of cases studied ([1]; Prostatic carcinoma): 1/1
No. of positive cases/total no. of cases studied ([1]; Renal cell carcinoma): 0/2
No. of positive cases/total no. of cases studied ([1]; Rhabdosarcoma): 0/2
No. of positive cases/total no. of cases studied ([1]; Thyroid carcinoma): 0/2
No. of positive cases/total no. of cases studied ([1]; Undifferentiated carcinoma): 0/4
No. of positive cases/total no. of cases studied ([2]; Adipose): 0/2
No. of positive cases/total no. of cases studied ([2]; Bladder): 0/2
No. of positive cases/total no. of cases studied ([2]; Brain): 0/2
No. of positive cases/total no. of cases studied ([2]; Breast): 0/2
No. of positive cases/total no. of cases studied ([2]; Cerebullum): 0/2
No. of positive cases/total no. of cases studied ([2]; Cervix): 0/2
No. of positive cases/total no. of cases studied ([2]; Colon): 0/2
No. of positive cases/total no. of cases studied ([2]; Diaphragm): 2/2
No. of positive cases/total no. of cases studied ([2]; Duodenum): 0/2
No. of positive cases/total no. of cases studied ([2]; Esophagus): 0/2
No. of positive cases/total no. of cases studied ([2]; Gallbladder): 0/2
No. of positive cases/total no. of cases studied ([2]; Heart): 0/2
No. of positive cases/total no. of cases studied ([2]; Ileum): 0/2
No. of positive cases/total no. of cases studied ([2]; Jejenum): 0/2
No. of positive cases/total no. of cases studied ([2]; Kidney): 0/2
No. of positive cases/total no. of cases studied ([2]; Liver): 0/2
No. of positive cases/total no. of cases studied ([2]; Lung): 0/2
No. of positive cases/total no. of cases studied ([2]; Ovary): 0/2
No. of positive cases/total no. of cases studied ([2]; Pancreas): 0/2
No. of positive cases/total no. of cases studied ([2]; Placenta): 0/4
No. of positive cases/total no. of cases studied ([2]; Rectum): 0/2
No. of positive cases/total no. of cases studied ([2]; Skeletal muscle): 2/2
No. of positive cases/total no. of cases studied ([2]; Skin): 0/2
No. of positive cases/total no. of cases studied ([2]; Spleen): 0/2
No. of positive cases/total no. of cases studied ([2]; Stomach): 0/2
No. of positive cases/total no. of cases studied ([2]; Testis): 0/2
No. of positive cases/total no. of cases studied ([2]; Thymus): 0/2
No. of positive cases/total no. of cases studied ([2]; Thyroid): 0/2
No. of positive cases/total no. of cases studied ([2]; Tonsil): 0/2
No. of positive cases/total no. of cases studied ([2]; Uterus): 0/2
